Measured values as given in patent publication US20040043378A1 (published 2004).

B1: bromodomain of P/CAF (residues 719-832 of SEQ ID NO:2) (other)
chain: SKEPRDPDQLYSTLKSILQQVKSHQSAWPFMEPVKRTEAPGYYEVIRFPMDLKTMSERLKNRYYVSKKLFMADLQRVFTNCKEYNAAESEYYKCANILEKFFFSKIKEAGLIDK
notes: also called P/CAF bromodomain; the bromodomain
B2: Tat K50R/K51R mutant protein, FLAG-tagged, expressed in cells (other)
chain: MEPVDPRLEPWKHPGSQPKTASNNCYCKRCCLHCQVCFTKKGLGISYGRRRRRQRRRAPQDSKTHQVSLSKQPASQPRGDPTGPKESKKKVERETETDPED
notes: also called Tat-RR; Tat double mutant containing K50R/K51R

How the values were obtained:
[1] = target: T1, Tat AcK28 peptide TNCYCK-AcK-CCFH (SEQ ID NO:58) (Human Immunodeficiency Virus type 1); assay: NMR 2D 1H-15N HSQC titration; 'binds weakly'
T1 construct: Synthetic peptide

[2] = target: Tat AcK50 peptide SYGR-AcK-[…] (SEQ ID NO:50) (Human Immunodeficiency Virus type 1); assay: NMR 2D 1H-15N HSQC titration; 'interacts strongly'
[3] = target: T2, P/CAF (p300/CBP-associated factor), HA-tagged, expressed in cells (human, UniProt Q92831 1-832); assay: interaction in cells, western blot (FLAG-Tat, HA-P/CAF)
T2 construct: also called HA-P/CAF

Binder | Kd [1] | Kd [2] | binding result [3]
B1 | < 300 µM | ~20 µM | 
B2 |  |  | no binding
